Measured values published in publication PMC8897712 (The Journal of Biological Chemistry, 2022).
Read-outs that look alike come from different tables or passages of the source. Blank lines part the entries; values can stand above or below the molecule they belong to.

Columns and labels:
FtsA(ΔMTS) [1] = molecular target: T1, FtsA(ΔMTS) (Escherichia coli, UniProt P0ABH0); test: sedimentation of polymers; format: biochemical; details: 50 mM Tris-HCl pH 7.5, 150 mM KCl, 4 mM MgCl2, 23 °C; polymerisation
T1 sequence (P0ABH0 1-404): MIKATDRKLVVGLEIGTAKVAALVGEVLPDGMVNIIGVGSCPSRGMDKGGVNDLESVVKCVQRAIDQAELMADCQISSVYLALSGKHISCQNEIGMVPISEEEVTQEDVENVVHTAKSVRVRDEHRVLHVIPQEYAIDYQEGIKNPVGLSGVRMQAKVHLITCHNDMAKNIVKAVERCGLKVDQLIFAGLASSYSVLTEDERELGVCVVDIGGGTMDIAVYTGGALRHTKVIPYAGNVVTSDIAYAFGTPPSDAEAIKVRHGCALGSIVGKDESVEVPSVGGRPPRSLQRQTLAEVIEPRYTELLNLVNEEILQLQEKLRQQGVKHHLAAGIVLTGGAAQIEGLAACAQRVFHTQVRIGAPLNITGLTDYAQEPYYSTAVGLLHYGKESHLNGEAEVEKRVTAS

FtsA(ΔMTS) [2] = molecular target: T1, FtsA(ΔMTS); details: 50 mM Tris-HCl pH 7.5, 150 mM KCl, 4 mM MgCl2, 23 °C, ATP 4 mM; polymerisation
FtsA(E14R) = molecular target: T2, FtsA(E14R) (E. coli, UniProt P0ABH0 1-420, E14R); test: co-sedimentation
T2 sequence: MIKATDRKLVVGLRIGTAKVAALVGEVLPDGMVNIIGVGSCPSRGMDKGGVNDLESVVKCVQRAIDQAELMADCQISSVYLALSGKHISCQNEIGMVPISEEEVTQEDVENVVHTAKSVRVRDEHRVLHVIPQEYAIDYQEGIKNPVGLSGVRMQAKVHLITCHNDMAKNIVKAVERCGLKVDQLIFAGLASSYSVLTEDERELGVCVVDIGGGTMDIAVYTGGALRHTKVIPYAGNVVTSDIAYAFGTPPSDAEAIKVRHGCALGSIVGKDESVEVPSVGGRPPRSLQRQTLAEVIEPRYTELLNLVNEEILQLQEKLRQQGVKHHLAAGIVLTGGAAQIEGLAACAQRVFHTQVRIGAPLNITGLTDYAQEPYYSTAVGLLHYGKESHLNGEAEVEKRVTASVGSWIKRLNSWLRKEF

Escherichia coli FtsA = molecular target: T3, Escherichia coli FtsA (E. coli, UniProt P0ABH0 1-420); test: co-sedimentation
T3 sequence: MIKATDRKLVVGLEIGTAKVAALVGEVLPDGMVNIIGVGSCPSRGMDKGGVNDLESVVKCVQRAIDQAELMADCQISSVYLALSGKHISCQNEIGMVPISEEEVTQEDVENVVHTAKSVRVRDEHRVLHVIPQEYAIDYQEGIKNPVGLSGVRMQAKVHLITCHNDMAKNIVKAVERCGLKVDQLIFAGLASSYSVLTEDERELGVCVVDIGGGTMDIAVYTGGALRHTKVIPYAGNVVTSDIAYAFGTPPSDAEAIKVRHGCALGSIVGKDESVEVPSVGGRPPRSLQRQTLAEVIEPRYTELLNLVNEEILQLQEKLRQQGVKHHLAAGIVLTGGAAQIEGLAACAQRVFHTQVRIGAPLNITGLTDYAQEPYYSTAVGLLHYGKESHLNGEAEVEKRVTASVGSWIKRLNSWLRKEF

[3] = molecular target: the molecule itself; test: negative-stain transmission electron microscopy
FtsA(ΔMTS) [4] = molecular target: T4, FtsA(ΔMTS) (E. coli, UniProt P0ABH0 1-404); test: negative-stain transmission electron microscopy
T4 sequence: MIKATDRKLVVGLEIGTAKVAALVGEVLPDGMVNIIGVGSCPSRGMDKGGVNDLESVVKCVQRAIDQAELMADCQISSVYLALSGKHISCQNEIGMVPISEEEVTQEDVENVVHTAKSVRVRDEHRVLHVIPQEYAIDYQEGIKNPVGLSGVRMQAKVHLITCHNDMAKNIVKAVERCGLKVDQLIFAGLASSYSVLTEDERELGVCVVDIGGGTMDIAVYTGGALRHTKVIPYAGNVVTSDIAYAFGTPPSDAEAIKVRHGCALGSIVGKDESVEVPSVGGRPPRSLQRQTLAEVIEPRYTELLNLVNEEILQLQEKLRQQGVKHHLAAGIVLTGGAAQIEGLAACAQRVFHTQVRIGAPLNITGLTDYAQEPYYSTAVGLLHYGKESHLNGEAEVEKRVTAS

FtsA(ΔMTS) [5] = molecular target: T4, FtsA(ΔMTS); test: bead recruitment assay

% FtsA(ΔMTS) in pellet (FtsA(ΔMTS) [1]): 22.4%
Molecule: Nc1ncnc2c1ncn2[C@@H]1O[C@H](COP(=O)(O)OP(=O)(O)O)[C@@H](O)[C@H]1O [ADP]

% FtsA(ΔMTS) in pellet (FtsA(ΔMTS) [2]): 50.0%
Molecule: Nc1ncnc2c1ncn2[C@@H]1O[C@H](COP(=O)(O)OP(=O)(O)OP(=O)(O)O)[C@@H](O)[C@H]1O [ATP]

binding result (FtsA(E14R)): binds
binding result (Escherichia coli FtsA): binds
binding result (FtsA(ΔMTS) [4]): binds
B1: Escherichia coli FtsZ (natural protein)
chain: MFEPMELTNDAVIKVIGVGGGGGNAVEHMVRERIEGVEFFAVNTDAQALRKTAVGQTIQIGSGITKGLGAGANPEVGRNAADEDRDALRAALEGADMVFIAAGMGGGTGTGAAPVVAEVAKDLGILTVAVVTKPFNFEGKKRMAFAEQGITELSKHVDSLITIPNDKLLKVLGRGISLLDAFGAANDVLKGAVQGIAELITRPGLMNVDFADVRTVMSEMGYAMMGSGVASGEDRAEEAAEMAISSPLLEDIDLSGARGVLVNITAGFDLRLDEFETVGNTIRAFASDNATVVIGTSLDPDMNDELRVTVVATGIGMDKRPEITLVTNKQVQQPVMDRYQQHGMAPLTQEQKPVAKVVNDNAPQTAKEPDYLDIPAFLRKQAD
binding result [3]: binds

binding result (FtsA(ΔMTS) [5]): binds
B2: H6-Gfp-FtsZ (natural protein)
chain: MFEPMELTNDAVIKVIGVGGGGGNAVEHMVRERIEGVEFFAVNTDAQALRKTAVGQTIQIGSGITKGLGAGANPEVGRNAADEDRDALRAALEGADMVFIAAGMGGGTGTGAAPVVAEVAKDLGILTVAVVTKPFNFEGKKRMAFAEQGITELSKHVDSLITIPNDKLLKVLGRGISLLDAFGAANDVLKGAVQGIAELITRPGLMNVDFADVRTVMSEMGYAMMGSGVASGEDRAEEAAEMAISSPLLEDIDLSGARGVLVNITAGFDLRLDEFETVGNTIRAFASDNATVVIGTSLDPDMNDELRVTVVATGIGMDKRPEITLVTNKQVQQPVMDRYQQHGMAPLTQEQKPVAKVVNDNAPQTAKEPDYLDIPAFLRKQAD
